# What was measured:
# [1] = substrate: C=C(C)CCO[P@@](=O)(O)OP(=O)(O)O; assay: purified protein, by the assay type; details: other: double reciprocal plotting; remaining reactants at saturation
# [2] = substrate: CC(C)=CCC/C(C)=C/CC/C(C)=C/CO[P@@](=O)(O)OP(=O)(O)O; assay: purified protein, by the assay type; details: other: double reciprocal plotting; remaining reactants at saturation
protein,measurement,setting,value
T. canadensis GGPP synthase (Taxus canadensis) (protein) FDFNEYMKSKAVAVDAALDKAIPLEYPEKIHESMRYSLLAGGKRVRPALCIAACELVGGSQDLAMPTACAMEMIHTMSLIHDDLPCMDNDDFRRGKPTNHKVFGEDTAVLAGDALLSFAFEHIAVATSKTVPSDRTLRVISELGKTIGSQGLVGGQVVDITSEGDANVDLKTLEWIHIHKTAVLLECSVVSGGILGGATEDEIARIRRYARCVGLLFQVVDDILDVTKSSEELGKTAGKDLLTDKATYPKLMGLEKAKEFAAELATRAKEELSSFDQIKAAPLLGLADYIAFRQN,Km,[1],7 µM
same,Km,[2],6 µM
